For 45 variants, abundance fitness results are on record in the Human Domainome abundance scans (Beltran et al. 2025).

± gives the uncertainty stated by the source.

Sequences and labels used below:
B1: Triacylglycerol hydrolase DDHD2, residues 389 to 447; numbered along this chain, O94830 (parent)
chain: TLEEDLKKLQLSEFFDIFEKEKVDKEALALCTDRDLQEIGIPLGPRKKILNYFSTRKNS

Variants of B1 are the subject of this series. The experiment in a line: abundance fitness (aPCA) (normalised: wild type 0, dead -1); higher = more abundant; growth selection in yeast, the domain comes from the species named. Conditions: Homo sapiens.
In the case of TLEEDLKKLQLSEFFDIFEKEKVDKEALALCTDRDLQEMGIPLGPRKKILNYFSTRKNS [I39M], the abundance fitness is 0.764 ± 0.072.

Regarding TLEEDLKKLQLSEFFDIFEKEKVDKEALALCTDRDLQEAGIPLGPRKKILNYFSTRKNS [I39A], the abundance fitness was -0.204 ± 0.074.

In the case of TLEEDLKKLQLSEFFDIFEKEKVDKEALALCTDRDLQEDGIPLGPRKKILNYFSTRKNS [I39D], the abundance fitness was -0.3 ± 0.12.

For TLEEDLKKLQLSEFFDIFEKEKVDKEALALCTDRDLQEKGIPLGPRKKILNYFSTRKNS [I39K], the abundance fitness turned out to be 0.196 ± 0.087.

For the variant TLEEDLKKLQLSEFFDIFEKEKVDKEALALCTDRDLQEFGIPLGPRKKILNYFSTRKNS [I39F], the abundance fitness stood at 0.448 ± 0.12.

Consider TLEEDLKKLQLSEFFDIFEKEKVDKEALALCTDRDLQECGIPLGPRKKILNYFSTRKNS [I39C], for which the abundance fitness is -0.411 ± 0.12.

Regarding TLEEDLKKLQLSEFFDIFEKEKVDKEALALCTDRDLQELGIPLGPRKKILNYFSTRKNS [I39L], the abundance fitness turned out to be 0.176 ± 0.064.

As to TLEEDLKKLQLSEFFDIFEKEKVDKEALALCTDRDLQEGGIPLGPRKKILNYFSTRKNS [I39G], the abundance fitness is -0.261 ± 0.079.

On to TLEEDLKKLQLSEFFDIFEKEKVDKEALALCTDRDLQEHGIPLGPRKKILNYFSTRKNS [I39H], for which the abundance fitness is -0.341 ± 0.19.

As to TLEEDLKKLQLSEFFDIFEKEKVDKEALALCTDRDLVEIGIPLGPRKKILNYFSTRKNS [Q37V], the abundance fitness was -0.048 ± 0.067.

TLEEDLKKLQLSEFFDIFEKEKVDKEALALCTDRDLNEIGIPLGPRKKILNYFSTRKNS [Q37N]: the abundance fitness was -0.305 ± 0.14.

In the case of TLEEDLKKLQLSEFFDIFEKEKVDKEALALCTDRDLMEIGIPLGPRKKILNYFSTRKNS [Q37M], the abundance fitness was -0.024 ± 0.087.

For TLEEDLKKLQLSEFFDIFEKEKVDKEALALCTDRDLEEIGIPLGPRKKILNYFSTRKNS [Q37E], the abundance fitness came out at 0.241 ± 0.097.

Regarding TLEEDLKKLQLSEFFDIFEKEKVDKEALALCTDRDLSEIGIPLGPRKKILNYFSTRKNS [Q37S], the abundance fitness was -0.178 ± 0.07.

On to TLEEDLKKLQLSEFFDIFEKEKVDKEALALCTDRDLTEIGIPLGPRKKILNYFSTRKNS [Q37T], for which the abundance fitness was -0.129 ± 0.089.

As for TLEEDLKKLQLSEFFDIFEKEKVDKEALALCTDRDLLEIGIPLGPRKKILNYFSTRKNS [Q37L], the abundance fitness was -0.343 ± 0.074.

For the variant TLEEDLKKLQLSEFFDIFEKEKVDKEALALCTDRDLPEIGIPLGPRKKILNYFSTRKNS [Q37P], the abundance fitness is -0.996 ± 0.16.

For TLEEDLKKLQLSEFFDIFEKEKVDKEALALCTDRDLREIGIPLGPRKKILNYFSTRKNS [Q37R], the abundance fitness was -0.302 ± 0.073.

As to TLEEDLKKLQLSEFFDIFEKEKVDKEALALCTDRDLIEIGIPLGPRKKILNYFSTRKNS [Q37I], the abundance fitness came out at 0.086 ± 0.1.

For the variant TLEEDLKKLQLSEFFDIFEKEKVDKEALALCTDRDLYEIGIPLGPRKKILNYFSTRKNS [Q37Y], the abundance fitness is -0.232 ± 0.13.

Take TLEEDLKKLQLSEFFDIFEKEKVDKEALALCTDRDLFEIGIPLGPRKKILNYFSTRKNS [Q37F]: the abundance fitness is -0.01 ± 0.12.

As for TLEEDLKKLQLSEFFDIFEKEKVDKEALALCTDRDLHEIGIPLGPRKKILNYFSTRKNS [Q37H], the abundance fitness was -0.229 ± 0.14.

In the case of TLEEDLKKLQLSEFFDIFEKEKVDKEALALCTDRDLGEIGIPLGPRKKILNYFSTRKNS [Q37G], the abundance fitness is 0.049 ± 0.064.

Regarding TLEEDLKKLQLSEFFDIFEKEKVDKEALALCTDRDLWEIGIPLGPRKKILNYFSTRKNS [Q37W], the abundance fitness is -0.37 ± 0.098.

As to TLEEDLKKLQLSEFFDIFEKEKVDKEALALCTDRELQEIGIPLGPRKKILNYFSTRKNS [D35E], the abundance fitness is 0.197 ± 0.073.

Take TLEEDLKKLQLSEFFDIFEKEKVDKEALALCTDRVLQEIGIPLGPRKKILNYFSTRKNS [D35V]: the abundance fitness was -0.818 ± 0.087.

In the case of TLEEDLKKLQLSEFFDIFEKEKVDKEALALCTDRTLQEIGIPLGPRKKILNYFSTRKNS [D35T], the abundance fitness is -0.264 ± 0.087.

As to TLEEDLKKLQLSEFFDIFEKEKVDKEALALCTDRILQEIGIPLGPRKKILNYFSTRKNS [D35I], the abundance fitness was -1.13 ± 0.19.

Take TLEEDLKKLQLSEFFDIFEKEKVDKEALALCTDRMLQEIGIPLGPRKKILNYFSTRKNS [D35M]: the abundance fitness was 0.215 ± 0.083.

As for TLEEDLKKLQLSEFFDIFEKEKVDKEALALCTDRALQEIGIPLGPRKKILNYFSTRKNS [D35A], the abundance fitness is -0.309 ± 0.084.

With TLEEDLKKLQLSEFFDIFEKEKVDKEALALCTDRLLQEIGIPLGPRKKILNYFSTRKNS [D35L], the abundance fitness is -0.762 ± 0.08.

In the case of TLEEDLKKLQLSEFFDIFEKEKVDKEALALCTDRRLQEIGIPLGPRKKILNYFSTRKNS [D35R], the abundance fitness is 0.053 ± 0.07.

Take TLEEDLKKLQLSEFFDIFEKEKVDKEALALCTDRHLQEIGIPLGPRKKILNYFSTRKNS [D35H]: the abundance fitness amounted to 0.087 ± 0.13.

TLEEDLKKLQLSEFFDIFEKEKVDKEALALCTDRKLQEIGIPLGPRKKILNYFSTRKNS [D35K]: the abundance fitness is 0.313 ± 0.081.

As for TLEEDLKKLQLSEFFDIFEKEKVDKEALALCTDRSLQEIGIPLGPRKKILNYFSTRKNS [D35S], the abundance fitness was -0.051 ± 0.07.

TLEEDLKKLQLSEFFDIFEKEKVDKEALALCTDRCLQEIGIPLGPRKKILNYFSTRKNS [D35C]: the abundance fitness is -0.278 ± 0.12.

As for TLEEDLKKLQLSEFFDIFEKEKVDKEALALCTDRYLQEIGIPLGPRKKILNYFSTRKNS [D35Y], the abundance fitness worked out at 0.207 ± 0.12.

For the variant TLEEDLKKLQLSEFFDIFEKEKVDKEALALCTDRFLQEIGIPLGPRKKILNYFSTRKNS [D35F], the abundance fitness was -0.311 ± 0.12.

As for TLEEDLKKLQLSEFFDIFEKEKVDKEALALCTDRNLQEIGIPLGPRKKILNYFSTRKNS [D35N], the abundance fitness is -0.06 ± 0.12.

For the variant TLEEDLKKLQLSEFFDIFEKEKVDKEALALCTDRGLQEIGIPLGPRKKILNYFSTRKNS [D35G], the abundance fitness is -0.182 ± 0.074.

With TLEEDLKKLQLSEFFDIFEKEKVDKEALALCTDRQLQEIGIPLGPRKKILNYFSTRKNS [D35Q], the abundance fitness was 0.271 ± 0.088.

Consider TLEEDLKKLQLSEFFDIFEKEKVDKEALALCTDRPLQEIGIPLGPRKKILNYFSTRKNS [D35P], for which the abundance fitness was -0.937 ± 0.14.

Turning to TLEEDLKKLQLSEFFDIFEKEKVDKEALALCTDRWLQEIGIPLGPRKKILNYFSTRKNS [D35W], the abundance fitness is -0.429 ± 0.1.

Take TLEEDLKKLQLSEFFDIFEKEKVDKEALALCTDRDYQEIGIPLGPRKKILNYFSTRKNS [L36Y]: the abundance fitness is -0.765 ± 0.14.

Turning to TLEEDLKKLQLSEFFDIFEKEKVDKEALALCTDRDCQEIGIPLGPRKKILNYFSTRKNS [L36C], the abundance fitness is -0.363 ± 0.11.
